Measurements as given in patent US7893023B2, “Prodrugs activated by plasmin and their use in cancer chemotherapy” (priority 2000, dated 2011).
Read-outs that look alike come from different tables or passages of the source. Square brackets hold non-standard residues; d marks the D form. Peptide text beside a SMILES is read from it. * marks the point of attachment. Doxorubicin(3'-N) = COc1cccc2c1C(=O)c1c(O)c3c(c(O)c1C2=O)C[C@@](O)(C(=O)CO)C[C@@H]3O[C@H]1C[C@H](N*)[C@H](O)[C@H](C)O1

Columns and labels:
OF-1 mice [1] = details: obtained under the same conditions, known value; cited from earlier work
[2] = system: LS174T colon tumor xenografts; test: Chemotherapeutic activity in the LS174T human colon tumor xenograft model; type: in vivo, mice; details: for treatment-related mortality / weight loss: DOX 3.8 μmol/kg, Compound II, DOX lower dosage 25.9 μmol/kg, i.p. days 0-4
Description: Animals were kept under pathogen-free conditions with food and water supplied ad libitum, and kept for about one week before implantation of the tumors. Fragments (˜2 mm) of tumors grown in nude mice were implanted subcutaneously in both flanks of the mice. Tumors were generally allowed to grow to attain a diameter of 5-6 mm each (approximately two weeks).
The mice weighed 20.0-25.0 g at the beginning of the study. They were selected and assigned to groups in order to have equally distributed tumor volumes in the different groups. In each group, mice were labeled individually. Treatments were assigned randomly to those groups.
All dosing solutions were prepared the day of injection by dissolution in water ( 1/10 of the expected final volume) and further dilution with 0.9% (w/v) NaCl. The concentration of these solutions was checked (A475 nm determination) after sterilization by filtration (0.22 μm) and adjusted to the final required value using sterile 0.9% (w/v) NaCl).
Treatments were administered by the i.p. route. The mice received a constant volume (10 μl/g) of either saline (control group) or drug. Mortality and clinical signs were recorded up to 4 hours post-treatment on dosing days, and daily thereafter. Their behavior was equally noted. Individual body weights were generally recorded daily until day 14 and at least twice a week thereafter.
Tumor growth was monitored by two-dimensional measurements using calipers and a precision of 0.5 mm. Tumor volumes were calculated according to the following formula: Vt=[length×(width)^2]/2
Median relative tumor volumes (RTV) were calculated as tumor volumes determined at individual days divided by tumor volumes on day 0. For treated groups, growth inhibition was estimated as the percentage ratio of median RTV of treated (T) mice versus controls (C) on each day of tumor treatment. T/C(%)=[Median RTV(treated group)/Median RTV(control group)]×100
The minimal T/C value (%) for each treatment was used as a parameter for maximum efficacy. Duration of growth inhibition was assessed by considering growth delays (T-C) for one (200%) and two (400%) doublings of the median RTV).
To determine the statistical significance of any difference in median RTV between two groups, the Mann-Whitney test was used. The test was conducted at a p level of 0.05 (two tailed) using the GraphPad Prism 3.00 software.
Female Swiss nude mice were 5 weeks old upon delivery (See General Methods, Section O). They were kept under pathogen-free conditions with food and water supplied ad libitum, and kept for about one week before implantation of the tumors. Fragments (˜2 mm) of LS174T tumors grown in nude mice were implanted subcutaneously in both flanks of the mice used in the study. Tumors were left to grow for 17 days. At that time, the mice weighed about 20.5-26.5 g.
Mice were then selected and assigned to groups in order to have equally distributed tumor volumes in different groups (5-6 mice, 9-10 tumors/group). The dose levels of Compound II, DOX used in the study, were selected on the basis of a lethality study previously conducted on OF-1 normal mice. The dose of DOX was based on previous chemotherapy experiments performed in nude mice with the same dosing schedule.
Treatments were administered by the i.p. route on days 0, 1, 2, 3 and 4, the mice receiving a constant volume (10 μl/g) of either saline or the different dosing solutions. DOX was used at 3.8 μmol/kg, Compound II, DOX was used at 25.9 μmol/kg and 34.5 μmol/kg. Clinical signs (recorded 0.5, 1, 2 and 4 hours after dosing and daily between dosing days) and body weights (recorded on each day of tumor measurement) were used to assess treatment toxicity, tumor growth was monitored on days 7, 12, 15, 19, 22, 26, 29, 33 and 36 by two-dimensional measurements using calipers and a precision of 0.5 mm.

OF-1 mice [3] = test: Acute toxicity in OF-1 mice, i.p.; type: in vivo
Procedure: (§1) The percentage of surviving mice and the mean body weight of each dose group was plotted as a function of time. Cumulative mortality on day 14 and day 28 was also plotted as a function of the dose level for the purpose of IC50 determination. IC50 values were determined from sigmoidal regressions performed with the GraphPad Prism 3.00 software.
(§2) Male OF-1 mice (5 weeks old upon delivery), were kept for one week under laboratory conditions before the experiment. […] The animals were divided in six groups (5 mice per group) for toxicity studies and marked individually.
(§3) Mortality and clinical signs were recorded up to 4 hours post-treatment on dosing days, and daily thereafter. Individual body weights were recorded daily until day 14 and at least twice a week thereafter. The percentage of surviving mice and the mean body weight of each dose group were plotted as a function of time. Cumulative mortality on day 14 and day 28 was also plotted as a function of the dose level for the purpose of LD50 determination. LD50 values were determined by regression analysis.

[4] = Acute toxicity in OF-1 mice, i.p.; type: in vivo; details: male, mouse, in vivo, ip; OF-1 mice, five i.p. injections days 0-4, calculated on day 28
Procedure: as §1, §2, §3

Procedure for B16-B16 murine melanoma: Male C57-B16 black mice were 5 weeks old upon delivery. The body weight of the animals was approximately 20 g at the beginning of the test (See General Methods, Section O).
The animals were divided in eight groups (5 mice per group). Confluent murine melanoma B16-B16 cells (See General Methods, Section E.) were washed twice with PBS and EDTA (See General Methods, Section F.) twice and detached with trypsin (2 min incubation at 37° C.), that was thereafter neutralized by DMEM-F12 (containing 10% of calf serum). The cells were centrifuged for 5 min at 300 g. The pellet was resuspended twice in the DMEM-F12 without serum and centrifuged 5 min at 300 g.
The number of cells per ml of DMEM-F12 was then estimated (Brucker chamber) and the dilution of 2.5×10^5 cells/ml prepared. Each animal received 200 μl of this suspension (5.0×10^4 cells) in its tail vein. The day of injection was considered day 0 of the study. […] Animals were weighed on days 0, 1, 3, 6, 8 and 14. Their behavior and eventual clinical signs were also noted. All animals were sacrificed on day 14 and autopsied.
The lung lobes were fixed in a Bouin's solution (picric acid: formaldehyde, 40%: acetic acid, 15:5:1, v/v). Every lobe immersed in the fixing solution in a Petri flask was uniformly lighted against an opaque black background. Pictures of the front and back side of every lobe were taken with the help of a light microscope, scanned and digitized. The relative surface occupied by B116-B16 colonies was then estimated with the Scion Image Program.
The individual mean values were analyzed with the Scheffe's F-test to evaluate the statistical significance of differences observed between the groups.

For COc1cccc2c1C(=O)c1c(O)c3c(c(O)c1C2=O)C[C@@](O)(C(=O)CO)C[C@@H]3O[C@H]1C[C@H](N)[C@H](O)[C@H](C)O1 [DOX, Doxorubicin], the LD50 (OF-1 mice [1]) is listed as 4.1 µmol/kg, the “lung surface occupied by B16-B16 metastases” value (B16-B16 murine melanoma; 5.2 μmol/kg i.p. days 1 and 3, day 14) is listed as 44.0±6.3% and the “mean body weight, % of initial” value (B16-B16 murine melanoma; 5.2 μmol/kg, day 14) is listed as 104.7%. For the same compound, the “lung surface occupied by B16-B16 metastases” value (B16-B16 murine melanoma; 8.6 μmol/kg i.p. days 1 and 3, day 14) was 23.4±5.7%, the “mean body weight, % of initial” value (B16-B16 murine melanoma; 8.6 μmol/kg, end of study) was 110% and the “activity on lung metastases” value (B16-B16 murine melanoma; 5.2 and 8.6 μmol/kg) was “did not show any significant activity”. For the same compound, the antitumor activity ([2]; DOX 3.8 μmol/kg i.p. days 0-4) was “total lack of activity”, the tumor regression ([2]; DOX 3.8 μmol/kg i.p. days 0-4) was “No tumor regression” and the treatment-related mortality [2] was “No treatment-related mortality”. The weight loss [2] was “no significant weight loss”.
With COc1cccc2c1C(=O)c1c(O)c3c(c(O)c1C2=O)C[C@@](O)(C(=O)CO)C[C@@H]3O[C@H]1C[C@H](NC(=O)[C@H](CC(C)C)NC(=O)[C@H](CC(C)C)NC(=O)[C@H](CCCCN)NC(=O)[C@H](CC(C)C)NC(=O)[C@@H](C)N)[C@H](O)[C@H](C)O1 [Compound II, DOX, D-Ala-Leu-Lys-Leu-Leu-DOX] (H-[dA]LKLL-{Doxorubicin(3'-N)}) the “body weight gained from day 6 to day 14” value (B16-B16 murine melanoma; 34.5 μmol/kg) was 4.9%, the “mean body weight, % of initial” value (B16-B16 murine melanoma; 34.5 μmol/kg, day 14) was 104.5% and the “clinical signs of toxicity” value (B16-B16 murine melanoma; 34.5 and 69.0 μmol/kg) was “No clinical signs of toxicity were observed”. For the same compound, the survival (OF-1 mice [3]; OF-1 mice, 17.24-60.34 μmol/kg i.p. days 0-4) was “All animals survived to day 7”, the “clinical signs of toxicity” value (OF-1 mice [3]; OF-1 mice, i.p.) was “piloerection, tremor, motor disturbances, stupor and finally, paralysis of the hind legs” and the “loss of mean body weight compared to initial body weight (critical threshold attained)” value (OF-1 mice [3]; doses 34.48 (after second week), 43.1 and 60.34 μmol/kg (after first week)) was no less than 20%. The “LD50 fold higher than that of DOX” value (OF-1 mice [3]; same conditions) was 8.4 fold, the LD50 at 28 day [4] was 34.5 µmol/kg and the “mice that died before the end of the study” value ([2]; 34.5 μmol/kg i.p. days 0-4, deaths on days 18, 34 and 35) was “three”. For the same compound, the “maximum loss of mean body weight” value ([2]; 34.5 μmol/kg, day 26) was 14%, the treatment-related mortality [2] was “No treatment-related mortality” and the weight loss [2] was “no significant weight loss”.
